# Laboratory results reported in publication doi:10.1101/2025.09.03.673757.
# Legend:
# [1] = target: N-terminally His6-tagged Gαo E246K mutant (rat) (UniProt P59215)
# [2] = target: N-terminally His6-tagged wild-type Gαo (rat) (UniProt P59215)
substance,measurement,setting,value
RGS16 domain (domain or fragment),"kGAP (single-turnover GTPase assay, 400 nM Gα, 20 nM RGS16)",[1],1.7 min⁻¹
same,"kGAP (single-turnover GTPase assay, 400 nM Gα, 20 nM RGS16)",[2],1.6 min⁻¹
